In US20070116750A1, “Compositions for disrupting and inhibiting reconstitution of wound biofilm” (priority 2005, published 2007):
Entries after “also recorded” stand apart in the source; their conditions may differ.

Experiments:
P. aeruginosa = conditions: in vitro; cited from earlier work
oral ulcers = conditions: hamsters; cited from earlier work
Streptococcus mutans = conditions: lactoferrin and iron depletion; cited from earlier work
chronic wound biofilm = assay: Topical treatment of patients' chronic/non-healing wounds in the clinic (case reports and clinical experience); assay type: in vivo, human; conditions: for wound healing outcome: topical application with debridement and other wound care
Source text: The composition is preferably applied following wound debridement. Although biofilm bacteria cannot be completely eradicated from the wound area by debridement, decreasing biofilm mass and providing increased exposure of the debrided tissue and remaining biofilm bacteria to the inventive compositions increases wound healing. […] It is therefore of benefit to debride the slough from the wound as completely as possible. Debridement can be performed by surgical, mechanical, autolytic, enzymatic, or a combination of means known to those of skill in the art of wound care. Furthermore, standard gauze dressings to pack or cover the wound will preferably be avoided, since those dressings may enhance biofilm formation or reconstitution in the wound. If used, such dressings may, however, be coated or impregnated with a composition of the present invention to decrease the biofilm-enhancing properties of a gauze dressing.
Topical wound care compositions may comprise about 2 to about 200 mg of MDPP or MDPP-A per cubic centimeter of total composition. In one embodiment, a composition comprises about 20 to about 200 mg of MDPP or MDPP-A, provided as Bioferrino®1000 or Bioferrin®2000, per cubic centimeter of total composition and about 1 to about 50, or in some embodiments about 5 to about 20, percent (w/v) xylitol. In one embodiment, this composition may be admixed into a methylcellulose/gelatin gel. This composition can be applied, in an amount of about ½ to about 5 cc of protein isolate/xylitol composition to each one square centimeter of wound area, to a freshly debrided chronic wound after the slough has been removed.
Xylitol (one-, two-, three-, four-, and five-xypentane hydro from Spectrum Chemical) comprised the second active ingredient, and was present at a concentration of 5% by weight of the mixture. The base gel of the composition comprised methylcellulose (0.023 gm/cc), gelatin (0.013 gm/cc) and sterile water.

[1] = individual patient case reports

B1: lactoferrin: iron-binding glycoprotein, 75,000-80,000 Daltons; in Examples 2-11 applied as Bioferrin with xylitol in gel (protein, UniProt P24627 20-708, looked up)
Lactotransferrin: APRKNVRWCTISQPEWFKCRRWQWRMKKLGAPSITCVRRAFALECIRAIAEKKADAVTLDGGMVFEAGRDPYKLRPVAAEIYGTKESPQTHYYAVAVVKKGSNFQLDQLQGRKSCHTGLGRSAGWIIPMGILRPYLSWTESLEPLQGAVAKFFSASCVPCIDRQAYPNLCQLCKGEGENQCACSSREPYFGYSGAFKCLQDGAGDVAFVKETTVFENLPEKADRDQYELLCLNNSRAPVDAFKECHLAQVPSHAVVARSVDGKEDLIWKLLSKAQEKFGKNKSRSFQLFGSPPGQRDLLFKDSALGFLRIPSKVDSALYLGSRYLTTLKNLRETAEEVKARYTRVVWCAVGPEEQKKCQQWSQQSGQNVTCATASTTDDCIVLVLKGEADALNLDGGYIYTAGKCGLVPVLAENRKSSKHSSLDCVLRPTEGYLAVAVVKKANEGLTWNSLKDKKSCHTAVDRTAGWNIPMGLIVNQTGSCAFDEFFSQSCAPGADPKSRLCALCAGDDQGLDKCVPNSKEKYYGYTGAFRCLAEDVGDVAFVKNDTVWENTNGESTADWAKNLNREDFRLLCLDGTRKPVTEAQSCHLAVAPNHAVVSRSDRAAHVKQVLLHQQALFGKNGKNCPDKFCLFKSETKNLLFNDNTECLAKLGGRPTYEEYLGTEYVTAIANLKKCSTSPLLEACAFLTR
effect on biofilm formation (P. aeruginosa): block biofilm formation
efficacy for treating oral ulcers (oral ulcers): not effective
effect on biofilm formation (Streptococcus mutans): stimulate biofilm formation
inhibition of biofilm reconstitution / response of wounds, clinical experience (chronic wound biofilm; chronic wounds after debridement, comparative statements): inhibits reconstitution of an existing biofilm in a chronic wound
slough (biofilm) in the wound bed during therapy (chronic wound biofilm; [1]): no evidence of slough
wound healing outcome (chronic wound biofilm; [1]): the wound healed; also recorded: almost completely healed
wound healing outcome (chronic wound biofilm; individual patient case reports, listed as Lactoferrin): complete healing of their wound
time to complete healing / closure of wound (chronic wound biofilm; patients with venous leg wounds): 5 weeks
